Among the data in PMC9179584 (2022) are screen value values, retold here.

To fix the notation:
B1: SMAD3 wild type, overexpressed from pCMV5b-SMAD3 [not stated] / SMAD Anchor for Receptor Activation (SARA) [human (endogenous in HT-1080)] (parent complex)
chain 1: MSSILPFTPPIVKRLLGWKKGEQNGQEEKWCEKAVKSLVKKLKKTGQLDELEKAITTQNVNTKCITIPRSLDGRLQVSHRKGLPHVIYCRLWRWPDLHSHHELRAMELCEFAFNMKKDEVCVNPYHYQRVETPVLPPVLVPRHTEIPAEFPPLDDYSHSIPENTNFPAGIEPQSNIPETPPPGYLSEDGETSDHQMNHSMDAGSPNLSPNPMSPAHNNLDLQPVTYCEPAFWCSISYYELNQRVGETFHASQPSMTVDGFTDPSNSERFCLGLLSNVNRNAAVELTRRHIGRGVRLYYIGGEVFAECLSDSAIFVQSPNCNQRYGWHPATVCKIPPGCNLKIFNNQEFAALLAQSVNQGFEAVYQLTRMCTIRMSFVKGWGAEYRRQTVTSTPCWIELHLNGPLQWLDKVLTQMGSPSIRCSSVS
chain 2: MENYFQAEAYNLDKVLDEFEQNEDETVSSTLLDTKWNKILDPPSHRLSFNPTLASVNESAVSNESQPQLKVFSLAHSAPLTTEEEDHCANGQDCNLNPEIATMWIDENAVAEDQLIKRNYSWDDQCSAVEVGEKKCGNLACLPDEKNVLVVAVMHNCDKRTLQNDLQDCNNYNSQSLMDAFSCSLDNENRQTDQFSFSINESTEKDMNSEKQMDPLNRPKTEGRSVNHLCPTSSDSLASVCSPSQLKDDGSIGRDPSMSAITSLTVDSVISSQGTDGCPAVKKQENYIPDEDLTGKISSPRTDLGSPNSFSHMSEGILMKKEPAEESTTEESLRSGLPLLLKPDMPNGSGRNNDCERCSDCLVPNEVRADENEGYEHEETLGTTEFLNMTEHFSESQDMTNWKLTKLNEMNDSQVNEEKEKFLQISQPEDTNGDSGGQCVGLADAGLDLKGTCISESEECDFSTVIDTPAANYLSNGCDSYGMQDPGVSFVPKTLPSKEDSVTEEKEIEESKSECYSNIYEQRGNEATEGSGLLLNSTGDLMKKNYLHNFCSQVPSVLGQSSPKVVASLPSISVPFGGARPKQPSNLKLQIPKPLSDHLQNDFPANSGNNTKNKNDILGKAKLGENSATNVCSPSLGNISNVDTNGEHLESYEAEISTRPCLALAPDSPDNDLRAGQFGISARKPFTTLGEVAPVWVPDSQAPNCMKCEARFTFTKRRHHCRACGKVFCASCCSLKCKLLYMDRKEARVCVICHSVLMNAQAWENMMSASSQSPNPNNPAEYCSTIPPLQQAQASGALSSPPPTVMVPVGVLKHPGAEVAQPREQRRVWFADGILPNGEVADAAKLTMNGTSSAGTLAVSHDPVKPVTTSPLPAETDICLFSGSITQVGSPVGSAMNLIPEDGLPPILISTGVKGDYAVEEKPSQISVMQQLEDGGPDPLVFVLNANLLSMVKIVNYVNRKCWCFTTKGMHAVGQSEIVILLQCLPDEKCLPKDIFNHFVQLYRDALAGNVVSNLGHSFFSQSFLGSKEHGGFLYVTSTYQSLQDLVLPTPPYLFGILIQKWETPWAKVFPIRLMLRLGAEYRLYPCPLFSVRFRKPLFGETGHTIMNLLADFRNYQYTLPVVQGLVVDMEVRKTSIKIPSNRYNEMMKAMNKSNEHVLAGGACFNEKADSHLVCVQNDDGNYQTQAISIHNQPRKVTGASFFVFSGALKSSSGYLAKSSIVEDGVMVQITAENMDSLRQALREMKDFTITCGKADAEEPQEHIHIQWVDDDKNVSKGVVSPIDGKSMETITNVKIFHGSEYKANGKVIRWTEVFFLENDDQHNCLSDPADHSRLTEHVAKAFCLALCPHLKLLKEDGMTKLGLRVTLDSDQVGYQAGSNGQPLPSQYMNDLDSALVPVIHGGACQLSEGPVVMELIFYILENIV
B2: SMAD2 wild type, overexpressed from pCMV5b-SMAD2 [not stated] / SMAD Anchor for Receptor Activation (SARA) [human (endogenous in HT-1080)] (parent complex)
chain 1: MSSILPFTPPVVKRLLGWKKSAGGSGGAGGGEQNGQEEKWCEKAVKSLVKKLKKTGRLDELEKAITTQNCNTKCVTIPSTCSEIWGLSTPNTIDQWDTTGLYSFSEQTRSLDGRLQVSHRKGLPHVIYCRLWRWPDLHSHHELKAIENCEYAFNLKKDEVCVNPYHYQRVETPVLPPVLVPRHTEILTELPPLDDYTHSIPENTNFPAGIEPQSNYIPETPPPGYISEDGETSDQQLNQSMDTGSPAELSPTTLSPVNHSLDLQPVTYSEPAFWCSIAYYELNQRVGETFHASQPSLTVDGFTDPSNSERFCLGLLSNVNRNATVEMTRRHIGRGVRLYYIGGEVFAECLSDSAIFVQSPNCNQRYGWHPATVCKIPPGCNLKIFNNQEFAALLAQSVNQGFEAVYQLTRMCTIRMSFVKGWGAEYRRQTVTSTPCWIELHLNGPLQWLDKVLTQMGSPSVRCSSMS
chain 2: B1 chain 2

One assay covers variants of B1. Nature of the assay: co-immunoprecipitation (IP: SMAD3, blot SARA) with densitometry; HT-1080 cells transiently transfected; ratio printed relative to the pCMV5b empty-vector lane = 1; parent: 0.6.
For the variant chain 1 N339S, the screen value is 0.2.

Variants of B2 are the subject of the next assay. Nature of the assay: co-immunoprecipitation (IP: SMAD2, blot SARA) with densitometry; HT-1080 cells transiently transfected; ratio printed relative to the pCMV5b empty-vector lane = 1; parent: 1.2.
Turning to chain 1 N381S, the screen value turned out to be 0.5.
